According to patent US20250019432A1:
Where a chain is given by its changes, count along the chain named. Values belong to the binder of their own block, whether it stands above or below them.

How the values were obtained:
human siglec12 (human) [1] = molecular target: human siglec12 (human) (UniProt Q96PQ1); test: FACS U937
[2] = molecular target: siglec12 with C-terminal FLAG tag on Expi 293 cells (UniProt Q96PQ1); test: flow cytometry, transfected Expi 293, 500 nM
[3] = molecular target: siglec6 with C-terminal FLAG tag on Expi 293 cells (UniProt O43699); test: flow cytometry, transfected Expi 293, 500 nM
human siglec12 (human) [4] = molecular target: human siglec12 (human) (UniProt Q96PQ1); test: cell-based or functional assay

siglec12 with C-terminal FLAG tag on Expi 293 cells, sequence (Q96PQ1 19-595): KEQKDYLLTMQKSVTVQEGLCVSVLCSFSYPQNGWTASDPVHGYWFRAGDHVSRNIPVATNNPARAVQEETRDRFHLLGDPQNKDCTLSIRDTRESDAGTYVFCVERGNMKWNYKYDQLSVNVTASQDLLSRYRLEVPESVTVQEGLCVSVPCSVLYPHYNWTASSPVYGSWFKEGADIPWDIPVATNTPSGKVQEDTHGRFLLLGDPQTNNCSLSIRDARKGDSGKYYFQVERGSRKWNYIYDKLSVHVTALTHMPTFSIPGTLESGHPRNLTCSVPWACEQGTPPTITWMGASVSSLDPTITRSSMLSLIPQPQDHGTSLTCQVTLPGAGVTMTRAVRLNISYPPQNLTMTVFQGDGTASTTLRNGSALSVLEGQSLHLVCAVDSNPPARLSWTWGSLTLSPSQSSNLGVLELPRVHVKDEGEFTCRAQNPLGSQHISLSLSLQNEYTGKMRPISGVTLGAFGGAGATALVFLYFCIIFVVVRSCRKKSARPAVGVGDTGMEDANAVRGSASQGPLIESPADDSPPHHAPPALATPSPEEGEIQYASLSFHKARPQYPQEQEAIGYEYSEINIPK
siglec6 with C-terminal FLAG tag on Expi 293 cells, sequence (O43699 27-453 limits assumed): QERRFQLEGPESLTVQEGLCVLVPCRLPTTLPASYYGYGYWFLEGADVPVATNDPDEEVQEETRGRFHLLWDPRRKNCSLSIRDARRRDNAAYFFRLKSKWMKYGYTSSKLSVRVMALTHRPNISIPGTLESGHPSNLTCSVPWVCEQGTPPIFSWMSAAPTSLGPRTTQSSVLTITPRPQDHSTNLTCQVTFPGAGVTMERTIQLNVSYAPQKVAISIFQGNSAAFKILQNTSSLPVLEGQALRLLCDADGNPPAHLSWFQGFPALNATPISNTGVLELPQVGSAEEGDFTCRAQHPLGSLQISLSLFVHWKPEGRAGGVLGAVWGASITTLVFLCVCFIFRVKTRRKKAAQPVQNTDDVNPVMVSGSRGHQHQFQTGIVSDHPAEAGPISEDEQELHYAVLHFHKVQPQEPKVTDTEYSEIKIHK

B1: S0040 (antibody, V domains shown)
VH: QVQLVQSGAEVKKPGASVKVSCKASGYTFTSYDINWVRQATGQGLEWMGWMNPNSGNTGYAQNFQGRVTMTRNTSINTAYMELSSLRSEDTAVYYCTRGGPTLVRGVIIRDAFDFWGQGTMVTVSS
VL: EIVMTQSPATLSVSPGERATLSCRASQSVSNSFAWYQQKPGQAPRLLIYGAFTRATGIPARFSGSGSGTEFTLTISSLQSEDFAVYYCQQYKTWPLTFGGGTKVEIKR
Flow % Gated (human siglec12 (human) [1]): 6%
Flow Fluor MFI (human siglec12 (human) [1]): 111

B5: S0023 (antibody, V domains shown)
VH: EVQLLESGGGLVQPGGSLRLSCAASGFTFSTFAMSWVRQAPGKGLEWVSTISGGGDSTYYADSVKGRFTISRDNSKNMMSLQMNSLRAVDTAVYYCVKGGGDEYFYYGMDVWGQGTTVTVSS
VL: DIQMTQSPSSLSASVGDRVTITCRASQGIRNDLGWYQQKPGKAPKRLIYSASSLQSGVPSRFSGSGSGTEFTLTISSLQPEDFATYYCLQHNSYPYTFGQGTPLDIKR
Flow % Gated (human siglec12 (human) [1]): 3%
Flow Fluor MFI (human siglec12 (human) [1]): 93
MFI [2]: 484
MFI [3]: 29.3
% Internalization at 2 hours, U937 cells (human siglec12 (human) [4]): 32%

Continued, values first:

Flow % Gated (human siglec12 (human) [1]): 2%
Flow Fluor MFI (human siglec12 (human) [1]): 97
B2: S0103 (antibody, V domains shown)
VH: B1 VH with N73D, I76V, T97A, T102N
VL: B1 VL with T69I

Flow % Gated (human siglec12 (human) [1]): 4%
Flow Fluor MFI (human siglec12 (human) [1]): 107
MFI [2]: 538
MFI [3]: 25.7
% Internalization at 2 hours, U937 cells (human siglec12 (human) [4]): 66%
B3: S0042 (antibody, V domains shown)
VH: QVQLVQSGTEVKKPGASVKVSCKVSGYTLSDLSIHWVRQAPGKGLEWMGGFEPEDGEIIYAQKFQGRVIMTEDTSTDTAYMKLSSLRSEDTAVYYCATDKRYFDWLLSGFDYWGQGTLVTVSS
VL: DIQLTQSPSFLSASVGDRVTITCRASQGISSYLAWYQQKPGKAPKLLIFAASTLQSGVPSRFSGSGSGTEFTLTISSLQPEDFATYYCQRLHSYPRTFGQGTKVEIKRA

Flow % Gated (human siglec12 (human) [1]): 79%
Flow Fluor MFI (human siglec12 (human) [1]): 368
MFI [2]: 912
MFI [3]: 29.8
% Internalization at 2 hours, U937 cells (human siglec12 (human) [4]): 58%
MFI of pH sensitive dye, Siglec12 complexes, 0 hours (human siglec12 (human) [4]): 20
MFI of pH sensitive dye, Siglec12 complexes, 4 hours (human siglec12 (human) [4]): 24.7
MFI of pH sensitive dye, Siglec12 complexes, 24 hours (human siglec12 (human) [4]): 26.5
Siglec12 % surface expression, 0 min (human siglec12 (human) [4]): 100%
Siglec12 % surface expression, 15 min (human siglec12 (human) [4]): 96%
Siglec12 % surface expression, 30 min (human siglec12 (human) [4]): 84%
Siglec12 % surface expression, 45 min (human siglec12 (human) [4]): 73%
Siglec12 % surface expression, 60 min (human siglec12 (human) [4]): 65%
Siglec12 % surface expression, 90 min (human siglec12 (human) [4]): 47%
Siglec12 % surface expression, 120 min (human siglec12 (human) [4]): 40%
B4: S0057 (antibody, V domains shown)
VH: QGQLVQSGAEVKKPGASVKVSCKASGYTFNNYGISWVRQAPGQGLEWMGWISAYNGFTRSTQKFQGRVTLTTDTSTSTAHMELRSLRSDDTAAYYCARDGGDGFDPWGQGTLVTVSS
VL: EIVLTQSPATLSLSPGERATLSCRASQSVSSFLAWYQQKPGQAPRLLIFDASNRATGIPARFSGSGSGTDFTLTISSLEPEDFAVYYCQQRSNWITFGQGTRLEIKRA
